The DeepSol protein solubility set

Experiment: soluble on expression in E. coli; label from the status in PepcDB or PDB records

Sequence	soluble on expression in E. coli
FQIGDMVARKSYQMDVLFRIIGIEQTSKGNSIAILHGDEVRLIADSDFSDLVAVKKDEQMMRKKKDESRMNESLELLRQDYKLLREKQEYYATSQYQHQEHYFHMPGKVLHLDGDEAYLKKCLNVYKKIGVPVYGIHCHEKKMSASIEVLLDKYRPDILVITGHDAYSKQKGGIDDLNAYRHSKHFVETVQTARKKIPHLDQLVIFAGACQSHFESLIRAGANFASSPSRVNIHALDPVYIVAKISFTPFMERINVWEVLRNTLTREKGLGGIETRGVLRIGMPYKSN	not soluble
FSGSEATAAILSRAPWSLQSVNPGLKTNSSKEPKFTKCRSPERETFSCHWTDEVHHGTKNLGPIQLFYTRRNTQEWTQEWKECPDYVSAGENSCYFNSSFTSIWIPYCIKLTSNGGTVDEKCFSVDEIVQPDPPIALNWTLLNVSLTGIHADIQVRWEAPRNADIQKGWMVLEYELQYKEVNETKWKMMDPILTTSVPVYSLKVDKEYEVRVRSKQRNSGNYGEFSEVLYVTLPQMSQ	soluble
FVLTPGNPRWENTHLTYRIENYTPDLSREDVDRAIEKAFQLWSNVSPLTFTKVSEGQADIMISFVRGDHRDNSPFDGPGGNLAHAFQPGPGIGGDAHFDEDERWTKNFRDYNLYRVAAHELGHSLGLSHSTDIGALMYPNYIYTGDVQLSQDDIDGIQAIYGPSENPVQPSGPQTPQVCDSKLTFDAITTLRGELMFFKDRFYMRTNSFYPEVELNFISVFWPQVPNGLQAAYEIADRDEVRFFKGNKYWAVRGQDVLYGYPKDIHRSFGFPSTVKNIDAAVFEEDTGKTYFFVAHECWRYDEYKQSMDTGYPKMIAEEFPGIGNKVDAVFQKDGFLYFFHGTRQYQFDFKTKRILTLQKANSWFNCRKN	soluble
GAATMMRLARAMRPRPDGLPAQADDLRLHRLVLNDVGPRLNVEALQRIAGNVAAQDSYPTFEAAVAAMRQISTTFGPHTDAQWDELARHIYVRQGGGWVRHFDPALAVPLGAQVAQAFEAGERILWQAYDSLDCPVLIVRGQDSDLLSAATAAEMLGRNPRARLHEVPGVGHAPTLMTPEQIEPIARFLQE	not soluble
GADGVGNASGDWHCDSTWSEGHVTTTSTRTWVLPTYNNHLYKRLGESLQSNTYNGFSTPWGYFDFNRFHCHFSPRDWQRLINNNWGMRPKAMRVKIFNIQVKEVTTSNGETTVANNLTSTVQIFADSSYELPYVMDAGQEGSLPPFPNDVFMVPQYGYCGLVTGNTSQQQTDRNAFYCLEYFPSQMLRTGNNFEITYSFEKVPFHSMYAHSQSLDRLMNPLIDQYLWGLQSTTTGTTLNAGTATTNFTKLRPTNFSNFKKNWLPGPSIKQQGFSKTANQNYKIPATGSDSLIKYETHSTLDGRWSALTPGPPMATAGPADSKFSNSQLIFAGPKQNGNTATVPGTLIFTSEEELAATNATDTDMWGNLPGGDQSNSNLPTVDRLTALGAVPGMVWQNRDIYYQGPIWAKIPHTDGHFHPSPLIGGFGLKHPPPQIFIKNTPVPANPATTFSSTPVNSFITQYSTGQVSVQIDWEIQKERSKRWNPEVQFTSNYGQQNSLLWAPDAAGKYTEPRAIGTRYLTHHL	soluble
GADNNKWKPLFGKNLENANYNPEVWSETDGVLGAVKDESIWTKDEYENFELDLDFKTDVGTNSGVVVYCTDTKDWIPNSVEIQIADDHCEKWGNGKPYEKCGAIYGHLGAVQDKVVKKPGEWNHMRIKCAGQHIMVILNGKKVTEMDMSKWTSGTKNPDGSDIPSWLPKPFAELPTKGFIGLQGKHGDSLIWFRNIKIRSL	soluble
GAHMADLSLEKAAEVSWEEEAEHSGASHNILVEVQDDGTMKIKDEERDDTLGGGGSGGGGSGVLWDTPSPGIYRILQRGLLGRSQVGVGVFQEGVFHTMWHVTRGAVLMYQGKRLEPSWASVKKDLISYGGGWRFQGSWNAGEEVQVIAVEPGKNPKNVQTAPGTFKTPEGEVGAIALDFKPGTAGSPIVNREGKIVGLYGNGVVTTSGTYVSAIAQAKASQEGPLPEIEDEVFRK	soluble
GAKLNRKLRQDSTDRYKTKLYLWRNLGGLIPEDMAISVTESITADWKQYNDMMSKVRNETLDILKTNKVATEDYIGYIAFAEELAHQVWKNKNSSPDPNTANEASKTDLESKYSDVYGLDVTVLDAIYNAVIPIIMGGGS	soluble
GALLHQRDQDMLVSILDLEKVSVEDIMIPRSDLVGIDVNDDWKKIQKQLTQANHTRVLLYRDSIDDVVGYIHARDALKLLSKNQFNKATLLRAVRELYFVPEGTPLNIQLLKFQHAKERIGLVVDEYGDIQGLVTLEDILEEIVGDFT	not soluble
GAMEAEKEFITMLKENQVDSTWSFSRIISELGTRDPRYWMVDDDPLWKKEMFEKYLSNR	soluble
GAMGDASRVRVSGQGLHEGHTFEPAEFIIDTRDAGYGGLSLSIEGPSKVDINTEDLEDGTCRVTYCPTEPGNYIINIKFADQHVPGSPFSVKVTGEGRVKESITRRRRAPSVANVGSHCDLSLKIPEISIQDMTAQVTSPSGKTHEAEIVEGENHTYCIRFVPAEMGTHTVSVKYKGQHVPGSPFQFTVGPLGEGGAHKVRAGGPGLERAEAGVPAEFSIWTREAGAGGLAIAVEGPSKAEISFEDRKDGSCGVAYVVQEPGDYEVSVKFNEEHIPDSPFVVPVASPS	soluble
GAMGNNLVETTCKNTPNYQLCLKTLLSDKRSATGDITTLALIMVDAIKAKANQAAVTISKLRHSNPPAAWKGPLKNCAFSYKVILTASLPEAIEALTKGDPKFAEDGMVGSSGDAQECEEYFKGSKSPFSALNIAVHELSDVGRAIVRNLL	soluble
GANPTTAETLDATRRVDDATVAIRCAINNLIVELIRGTGSYNRSSFESSSGLVWTSGPAGEGSYSITTPSQFVFLSSAWADPIELINLCTNALGNQFQTQQARTVVQRQFSEVWKPSPQVTVRFPDSDFKVYRYNAVLDPLVTALLGAFDTRNRIIEVENQ	soluble
GCALNCSFCSTAKQGFNRNLSTAEIIGQVWLAARELSDNNGTHDKKITNVVMMGMGEPLLNFDNVVSAMNIMMDDLAYGLSKRRVTLSTSGVLPEMERLREVSPVALAVSLHAPTDELRNELVPINKKYPLSQLISLCKRYFKDEPRRKVTFEYVMLKGVNDQPEHASQLIKLLHNVPAKVNLIPFNPFPLTQYQRSSRETIDAFRDKLMKHGINTITRKTRG	not soluble
GCPHDCVFCNQNTITGEESKVNGDYVKSTVEDYLDTIPNKSATIEISFFGGTFTAINIEKQKELLSVARHYKEIGKIKYIRLSTRPDYIDDEILTNLKNYSVDIIELGVQSLDSEVLLKSGRGHTKEDVVKASRLIKKYGFTLGHQIMLGLPGDNAEKDIETTRKVICMKPNICRIYPALVIKDTAMEKMYNRGIYKPYDIEECVEI	not soluble
GDQRFDVLITGGTLVDVVTGELRPADIGIVGALIASVHEPASRRDAAQVIDAGGAYVSPGLIDTHMHIESSMITPAAYAAAVVARGVTTIVWDPHEFGNVHGVDGVRWAAKAIENLPLRAILLAPSCVPSAPGLERGGADFDAAILADLLSWPEIGGIAEIMNMRGVIERDPRMSGIVQAGLAAEKLVCGHARGLKNADLNAFMAAGVSSDHELVSGEDLMAKLRAGLTIELRGSHDHLLPEFVAALNTLGHLPQTVTLCTDDVFPDDLLQGGGLDDVVRRLVRYGLKPEWALRAATLNAAQRLGRSDLGLIAAGRRADIVVFEDLNGFSARHVLASGRAVAEGGRMLVDIPTCDTTVLKGSMKLPLRMANDFLVKSQGAKVRLATIDRPRFTQWGETEADVKDGFVVPPEGATMISVTHRHGMAEPTTKTGFLTGWGRWNGAFATTVSHDSHNLTVFGGNAGDMALAANAVIGTGGGMAVASEGKVTAILPLPLSGLVSDAPLEEVARAFEDLREAVGKVVEWQPPYLVFKACFGATLACNIGPHQTDMGIADVLTGKVMESPVIEV	not soluble
GEASPVDPLRPVVDASIQPLLKEHRIPGMAVAVLKDGKAHYFNYGVANRESGAGVSEQTLFEIGSVSKTLTATLGAYAVVKGAMQLDDKASRHAPWLKGSAFDSITMGELATYSAGGLPLQFPEEVDSSEKMRAYYRQWAPVYSPGSHRQYSNPSIGLFGHLAASSLKQPFAPLMEQTLLPGLGMHHTYVNVPKQAMASYAYGYSKEDKPIRVNPGMLADEAYGIKTSSADLLRFVKANIGGVDDKALQQAISLTHQGHYSVGGMTQGLGWESYAYPVTEQTLLAGNSAKVILEANPTAAPRESGSQVLFNKTGSTNGFGAYVAFVPARGIGIVMLANRNYPIEARIKAAHAILAQLAG	soluble
GEIYTETLQQTYAWTAGTNIPIKIPRNNFIRKIRVQLIGSISNSGTAAVTLPSAPFPYNLVQTFNLSYEGSKTLYSVSGTGLGILMYYTTKGQNPAYPAPGTSVPASGSVNLNVMWEFDLARFPATMVQNIILSILTGQAPSGVSINASFYITITYERVTAQEILSEGGLGADGEMPLATVLPKVIEIPTFNVPASSAPIHVAYLQPGQIYKRQLVYVINSTSGINNTDPTEYELKIVRGVPTDKIKVSWAALQAENQAEYQVAPYSGASAIIDFRKYFNGDLDLTHAPSDSIEYDLALQNQDNVYSLYVSYVLPYYDQLAALPAQVAAIVQQYVARQKRRIKRHHHHHH	soluble
GERQVYRKIRDRASYAFALISVAAVVRMEEGRIATARLAFGGLAHKPWRDPEVEACLEGETPSDDLFDRAADRLLQSARGQGENDFKIPLTRRALTAALREATG	not soluble
GFGPHQRLEKLDSLLSDYDILSLSNIQQHSVRKRDLQTSTHVETLLTFSALKRHFKLYLTSSTERFSQNFKVVVVDGKNESEYTVKWQDFFTGHVVGEPDSRVLAHIRDDDVIIRINTDGAEYNIEPLWRFVNDTKDKRMLVYKSEDIKNVSRLQSPKVCGYLKVDNEELLPKGLVDREPPEGKT	not soluble
GGPTIMVALANPRTESALITLASALAQHEDGRVLATHIATVPDQTALETAAANRDRIDATSESLLDTAKADAEAFDVPIETKTILSHRGIEEVFDAARTNHADTVVMGYGGTQFAGGRAEGTLDELAHDLPCDFLVLDGQDL	not soluble
GGSHMKSYEIALIGNPNVGKSTIFNALTGENVYIGNWPGVTVEKKEGEFEYNGEKFKVVDLPGVYSLTANSIDEIIARDYIINEKPDLVVNIVDATALERNLYLTLQLMEMGANLLLALNKMDLAKSLGIEIDVDKLEKILGVKVVPLSAAKKMGIEELKKAISIAVKDKKTAEIKYPNFEPYIKKIT	soluble
GHDEIGQLATTFNHLTRELEDAQAMTEGERRKLASVIAYMTDGVIATNRNGAIILLNSPALELLNVSRETALEMPITSLLGLQENYTFEDLVEQQDSMLLEIERDDELTVLRVNFSVIQREH	not soluble
GHHHHHHAIAENLYFQSEDPVFTFGLIADVQYADIEDGENYLRTRRRYYRGSADLLRDAVLQWRRERVQCVVQLGDIIDGHNRRRDASDRALDTVMAELDACSVDVHHVWGNHEFYNFSRPSLLSSRLNSAQRTGTDTGSDLIGDDIYAYEFSPAPNFRFVLLDAYDLSVIGREEESEKHTHSWRILTQHNHNLQDLNLPPVSVGLEQRFVKFNGGFSEQQLQWLDAVLTLSDHKQERVLIFSHLPVHPCAADPICLAWNHEAVLSVLRSHQSVLCFIAGHDHDGGRCTDSSGAQHITLEGVIETPPHSHAFATAYLYEDRMVMKGRGRVEDLTITYS	soluble
GHMASNVANDGERPSRVVELTDETFDSIVMDPEKDVFVLYYVPWSRHSVAAMRLWDDLSMSQSQKRNHLTFVAARIDGEKYPDVIERMRVSGFPTMRYYTRIDKQEPFEYSGQRYLSLVDSFVFQNT	soluble
